# Source: patent US20250313625A1 (ELPISCIENCE SUZHOU BIOPHARMA, published 2025)
# T1: mFc tagged human LAG3 ECD recombinant protein (human, UniProt P18627 23-450)
# T1 construct: extracellular domain; purchased from Biointron; not shown: mouse IgG Fc (mFc) tag
# T1 sequence (looked up): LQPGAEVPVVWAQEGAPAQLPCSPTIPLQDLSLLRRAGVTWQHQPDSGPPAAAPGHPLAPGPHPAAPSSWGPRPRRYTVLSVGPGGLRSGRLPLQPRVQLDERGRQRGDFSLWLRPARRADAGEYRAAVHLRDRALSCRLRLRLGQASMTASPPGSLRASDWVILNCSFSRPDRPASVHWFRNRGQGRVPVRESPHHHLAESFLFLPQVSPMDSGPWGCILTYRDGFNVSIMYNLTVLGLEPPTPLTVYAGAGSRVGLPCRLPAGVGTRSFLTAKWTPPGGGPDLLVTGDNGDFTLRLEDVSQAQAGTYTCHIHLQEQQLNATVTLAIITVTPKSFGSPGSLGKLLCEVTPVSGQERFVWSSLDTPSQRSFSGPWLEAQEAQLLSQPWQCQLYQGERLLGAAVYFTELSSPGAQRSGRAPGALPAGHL
# T2: human LAG3, full length, stably expressed on cells (human, UniProt P18627 23-525)
# T2 construct: whole, on cells; also called CHOK1-human LAG3
# T2 sequence (looked up): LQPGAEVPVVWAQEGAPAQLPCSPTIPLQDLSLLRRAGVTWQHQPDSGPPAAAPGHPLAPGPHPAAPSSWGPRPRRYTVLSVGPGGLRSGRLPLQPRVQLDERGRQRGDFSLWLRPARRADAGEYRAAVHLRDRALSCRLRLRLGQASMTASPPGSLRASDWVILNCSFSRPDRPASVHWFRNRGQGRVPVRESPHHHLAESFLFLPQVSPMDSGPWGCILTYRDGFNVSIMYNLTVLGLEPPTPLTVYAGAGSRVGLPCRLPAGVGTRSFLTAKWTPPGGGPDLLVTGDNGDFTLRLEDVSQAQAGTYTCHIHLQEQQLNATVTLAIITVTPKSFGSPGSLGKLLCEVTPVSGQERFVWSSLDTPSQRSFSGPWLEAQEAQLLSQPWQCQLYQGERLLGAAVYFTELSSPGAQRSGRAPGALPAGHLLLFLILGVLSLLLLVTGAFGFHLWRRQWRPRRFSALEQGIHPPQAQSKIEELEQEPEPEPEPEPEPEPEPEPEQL
# T3: hFc tagged human LAG3 ECD recombinant protein (human, UniProt P18627 23-450)
# T3 construct: range 23-450; also called biotin labelled hFc tagged human LAG3 ECD; not shown: human IgG Fc tag
# T3 sequence (looked up): T1 sequence (looked up)
# T4: LAG3 D1 domain extra loop peptide (biotin labelled (site not stated))
# T4 peptide: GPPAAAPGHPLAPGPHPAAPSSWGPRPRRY
# B1: 023c (antibody, human IgG4, V domains shown)
# VH: QIQLVQSGPVLKKPGETVKISCKASGYTFTESPMNWVKQAPGRGFKWMGMIYTDTGEPTYAEEFKGRFAFSLETSASTAYLQINNLKSEDTATYFCVSDYGSILYWYFDVWGTGTTVTVSS
# VL: DIVMTQSHKFMSTSVGDRVSITCKASQDVSTAVAWYQQTPGQSPKLLIYSASYRYTGVPDRFTGSGSGTDFTFTISSVQAEDLAVYYCQQHYNSPPTFGAGTKLELK
# notes: human IgG4 S228P / kappa chimeric antibody; also called chimeric antibody 023; ES005-023c; not shown: human kappa light chain constant region (pcDNA3.4-hIgGk vector)
# Columns and labels:
# [1] = molecular target: T1, mFc tagged human LAG3 ECD recombinant …; test: competitive ELISA: mFc tagged human LAG3 ECD binding to plate coated LSECtin ECD
# Method: Activity of the purified chimeric antibodies to block LAG3 and LSECtin interaction was determined by competitive ELISA assay. […] After washing, HRP labeled anti-mouse Fc 2nd antibody (Sigma) was added and incubated at 37° C. for 1 hour. Then, 100 μl/well of TMB solution (Biotechnology) was added. After incubation for 15 minutes at room temperature, the reaction was stopped by the addition of 50 μl of 1N HCl. OD 450 nm was read.
# [2] = molecular target: T2, human LAG3, full length, stably …; test: FACS on 293F cells stably expressing human LAG3
# Method: Briefly the antibodies were incubated with 2×10⁵ target cells at 4° C. for 1 hour. After washing, fluorescence labeled anti-mouse IgG 2nd antibody (Life Technologies) was added and incubated at 4° C. for 1 hour. Geometric median fluorescence intensity (MFI) was detected and EC₅₀ was calculated using GraphPad Prism9.0.
# MFI was detected and EC₅₀ was calculated using GraphPad Prism9.0.
# [3] = molecular target: T3, hFc tagged human LAG3 ECD recombinant …; test: competitive ELISA format II: biotin labeled hFc tagged LAG3 ECD binding to plate coated His tagged human FGL1; 023c run beside 027c and 047c
# Method: After washing, HRP labeled anti-His 2nd antibody (Sigma) was added and incubated at 37° C. for 1 hour. Then, 100 μl/well of TMB solution (Biotechnology) was added. After incubation for 15 minutes at room temperature, the reaction was stopped by the addition of 50 μl of 1N HCl. OD 450 nm was read. […] After washing, HRP labeled anti-SA 2nd antibody (Sigma) was added and incubated at 37° C. for 1 hour. Then, 100 μl/well of TMB solution (Biotechnology) was added. After incubation for 15 minutes at room temperature, the reaction was stopped by the addition of 50 μl of 1N HCl. OD 450 nm was read. […] The competition assay of format III is a competitive FACS assay. […] After washing, dye labeled anti-His 2nd antibody (Sigma) was added and incubated at 37° C. for 1 hour. Fluorescence intensity was detected.
# [4] = molecular target: T4, LAG3 D1 domain extra loop peptide; test: ELISA format I: biotin labelled LAG3 D1 domain extra loop peptide on plate coated antibody; axis printed as Ab Conc. (nM)
# Method: In ELISA binding assay of format I (FIG. 9A), biotin labelled LAG3 D1 domain extra loop peptide was incubated with ELISA microplate coated anti-LAG3 antibodies. After washing, HRP labeled anti-SA 2nd antibody (Sigma) was added and incubated at 37° C. for 1 hour. Then, 100 μl/well of TMB solution (Biotechnology) was added. After incubation for 15 minutes at room temperature, the reaction was stopped by the addition of 50 μl of 1N HCl. OD 450 nm was read. In ELISA binding assay of format II (FIG. 9B), biotin labelled LAG3 D1 domain extra loop peptide and anti-LAG3 antibodies were co-incubated in ELISA microplate coated with SA. After washing, HRP labeled anti-human Fc 2nd antibody (Sigma) was added and incubated at 37° C. for 1 hour. Then, 100 μl/well of TMB solution (Biotechnology) was added. After incubation for 15 minutes at room temperature, the reaction was stopped by the addition of 50 μl of 1N HCl. OD 450 nm was read.
# [5] = molecular target: T3, hFc tagged human LAG3 ECD recombinant …; test: competitive ELISA format II: biotin hFc-LAG3 ECD binding to coated His-FGL1
# [6] = molecular target: T1, mFc tagged human LAG3 ECD recombinant …; test: competitive FACS: mFc-LAG3 ECD binding to Raji cells (MHC II)
# Method: Activity of the purified chimeric antibodies to block LAG3 and MHC II interaction was determined by competitive FACS assay. […] After washing, dye labeled anti-mouse Fc 2nd antibody (Sigma) was added and incubated at 37° C. for 1 hour. Fluorescence intensity was detected.
binder,measurement,setting,value
B1,%Blocking at 4 nM,[1],27.8%
same,%Blocking at 20 nM,[1],94.4%
same,%Blocking at 100 nM,[1],94.8%
same,EC50,[2],1.3 nM
same,TOP MFI,[2],387
same,IC50 (read off the curve),[3],~0.3 µg/mL
same,binding result,[4],no binding (tested: about 300 nM)
same,IC50,[5],1.5 nM
same,TOP blocking (%),[5],82.8%
same,IC50,[6],6.2 nM
same,TOP blocking (%),[6],99.2%
